Data as given in US20090010874A1 (published 2009).

How the values were obtained:
[1] = target: T1, human IL-4 receptor alpha chain on cells (TF-1 cells, primary human T-cell blasts and B cells) (human, UniProt P24394 26-825); assay: cell-based or functional assay
T1 sequence (looked up): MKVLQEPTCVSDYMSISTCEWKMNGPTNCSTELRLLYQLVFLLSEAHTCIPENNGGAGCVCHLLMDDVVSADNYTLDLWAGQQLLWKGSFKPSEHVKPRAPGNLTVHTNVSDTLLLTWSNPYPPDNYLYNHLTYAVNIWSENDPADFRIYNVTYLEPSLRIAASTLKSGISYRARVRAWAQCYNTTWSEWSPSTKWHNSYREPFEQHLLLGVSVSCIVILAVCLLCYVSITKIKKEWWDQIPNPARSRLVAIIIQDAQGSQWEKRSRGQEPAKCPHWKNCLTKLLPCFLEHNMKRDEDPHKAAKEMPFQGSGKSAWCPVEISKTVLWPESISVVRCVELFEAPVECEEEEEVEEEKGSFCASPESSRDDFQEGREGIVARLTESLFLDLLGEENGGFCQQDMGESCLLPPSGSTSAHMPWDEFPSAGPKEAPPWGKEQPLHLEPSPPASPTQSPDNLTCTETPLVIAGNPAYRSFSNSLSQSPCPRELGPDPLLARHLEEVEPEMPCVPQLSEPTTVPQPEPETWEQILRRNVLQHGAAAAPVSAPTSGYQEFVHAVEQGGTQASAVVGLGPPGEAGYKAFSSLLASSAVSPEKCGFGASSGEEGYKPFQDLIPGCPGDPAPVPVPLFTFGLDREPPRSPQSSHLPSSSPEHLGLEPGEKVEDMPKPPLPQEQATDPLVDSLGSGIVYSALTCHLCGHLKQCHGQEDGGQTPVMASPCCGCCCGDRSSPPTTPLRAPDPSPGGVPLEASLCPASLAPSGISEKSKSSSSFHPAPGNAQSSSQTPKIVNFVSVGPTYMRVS

[2] = target: T1, human IL-4 receptor alpha chain on …; assay: cell-based or functional assay; remark: listed apart in the source
[3] = target: T2, IL-4 receptor (immobilized on BIAcore CM5 chip) (human, UniProt P24394 26-232, limits assumed); assay: BIAcore SPR, IL-4 receptor amine-coupled to CM5 chip, mutein injected, direct binding kinetics
T2 construct: also called IL-4Rα; IL-4 receptor alpha chain
T2 sequence (looked up): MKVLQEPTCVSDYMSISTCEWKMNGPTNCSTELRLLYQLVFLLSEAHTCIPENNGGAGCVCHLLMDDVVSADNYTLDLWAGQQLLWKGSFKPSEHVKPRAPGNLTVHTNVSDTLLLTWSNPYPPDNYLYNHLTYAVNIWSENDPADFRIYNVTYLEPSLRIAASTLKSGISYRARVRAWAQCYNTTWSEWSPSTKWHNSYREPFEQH
Description: IL-4 receptor was immobilized on a BIAcore CM5 research grade sensor chip through amine coupling. The sensor surface was activated with an EDC/NHS pulse. IL-4 receptor was dissolved in 10 mM acetate buffer (pH 5.0) and injected into flowcell 2 followed by a pulse of 1.0M ethanolamine-HCL to deactivate the surface. The immobilization level for the receptor was ˜300 RU. Flowcell 1 was also activated without a ligand to function as a blank. The Biacore Wizard was used to perform kinetics analysis. Candidate IL4RE antagonists were diluted in HBS-EP (running buffer) and injected at 30 ul/minute flow rate for 3 minutes and a dissociation time of 15 minutes. Regeneration of the chip was performed by two 30 second injections of 10 mM Glycine pH2.5 (flow 100 ul/min) to baseline prior to next injection in the concentration series. Dissociation constant (KD) values were calculated for each candidate based on direct binding kinetics (Table 5).

[4] = target: T1, human IL-4 receptor alpha chain on …; assay: cell-based or functional assay; remark: listed apart in the source
[5] = target: T1, human IL-4 receptor alpha chain on …; assay: cell-based or functional assay; remark: listed apart in the source
[6] = target: T1, human IL-4 receptor alpha chain on …; assay: cell-based or functional assay; remark: listed apart in the source

Row | Binder | Fold increase in IC50 (relative to IL-4DM), primary T cell blasts [1] [fold] | IC50 (nM), primary T cell blast proliferation to IL-4 [1] [nM] | TF-1/IL-4 IC50 [2] [nM] | TF-1/IL-13 IC50 [2] [nM] | Kd [3] [nM] | B-cell IC50, nM (proliferation to IL-4) [4] [nM] | T-cell blast IC50, nM (proliferation to IL-4) [4] [nM] | Fold increase in IC50 (relative to IL-4DM), primary B cells [5] [fold] | IC50 (nM), primary B cell proliferation to anti-CD40 and IL-4 [5] [nM] | loss of activity in the TF-1 activity assay against PEGylated 38C [6] [fold]
1 | IL-4RA (IL-4 double mutein R121D/Y124D, unPEGylated) (ligand, also called BAY 16-9996; IL-4DM) MHKCDITLQEIIKTLNSLTEQKTLCTELTVTDIFAASKNTTEKETFCRAATVLRQFYSHHEKDTRCLGATAQQFHRHKQLIRFLKRLDRNLWGLAGLNSCPVKEANQSTLENFLERLKTIMDEKDSKCSS | 1 | 1.07 | 0.56 | 1.17 | 0.11 | 0.86 | 3.22 | 1 | 1.71 | 
2 | IL4-RE-T13D (T13D/R121D/Y124D), unPEGylated (ligand) MHKCDITLQEIIKDLNSLTEQKTLCTELTVTDIFAASKNTTEKETFCRAATVLRQFYSHHEKDTRCLGATAQQFHRHKQLIRFLKRLDRNLWGLAGLNSCPVKEANQSTLENFLERLKTIMDEKDSKCSS | 0.67 | 0.714 |  |  |  |  |  | 0.3 | 0.5 | 
3 | IL4-RE-K37C, PEGylated with linear 22 kD mPEG-maleimide (ligand, linear 22 kD methoxy-polyethylene glycol-maleimide on Cys 37 (numbered according to wild type IL-4), also called PEG-IL4RE) MHKCDITLQEIIKTLNSLTEQKTLCTELTVTDIFAASCNTTEKETFCRAATVLRQFYSHHEKDTRCLGATAQQFHRHKQLIRFLKRLDRNLWGLAGLNSCPVKEANQSTLENFLERLKTIMDEKDSKCSS |  |  | 0.82 | 1.22 | 0.74 | 3.73 | 13.9 |  |  | 
4 | IL4-RE-N105C, PEGylated with linear 22 kD mPEG-maleimide (ligand, linear 22 kD methoxy-polyethylene glycol-maleimide on Cys 105 (numbered according to wild type IL-4), also called PEG-IL4RE) MHKCDITLQEIIKTLNSLTEQKTLCTELTVTDIFAASKNTTEKETFCRAATVLRQFYSHHEKDTRCLGATAQQFHRHKQLIRFLKRLDRNLWGLAGLNSCPVKEACQSTLENFLERLKTIMDEKDSKCSS |  |  | 2.26 | 2.11 | 0.59 |  |  |  |  | 
5 | PEGylated T13D-N38C with 40 kDa branched PEG (IL4-RE-T13D-N38C) (ligand, 40 kDa branched maleimide-PEG on Cys 38 (numbered according to wild type IL-4)) MHKCDITLQEIIKDLNSLTEQKTLCTELTVTDIFAASKCTTEKETFCRAATVLRQFYSHHEKDTRCLGATAQQFHRHKQLIRFLKRLDRNLWGLAGLNSCPVKEANQSTLENFLERLKTIMDEKDSKCSS | 3.1 | 3.28 |  |  |  |  |  | 1.4 | 2.43 | 
6 | IL-4TM-A104C (R121D/Y124D/A104C) PEGylated with 40 kDa branched maleimide-PEG (ligand, 40 kDa branched maleimide-PEG on Cys 104 (numbered according to wild type IL-4)) MHKCDITLQEIIKTLNSLTEQKTLCTELTVTDIFAASKNTTEKETFCRAATVLRQFYSHHEKDTRCLGATAQQFHRHKQLIRFLKRLDRNLWGLAGLNSCPVKECNQSTLENFLERLKTIMDEKDSKCSS | 7.4 | 8 |  |  |  |  |  | 11.3 | 19.4 | ~2
7 | IL4-RE-Q106C, PEGylated with linear 22 kD mPEG-maleimide (ligand, linear 22 kD methoxy-polyethylene glycol-maleimide on Cys 106 (numbered according to wild type IL-4), also called PEG-IL4RE) MHKCDITLQEIIKTLNSLTEQKTLCTELTVTDIFAASKNTTEKETFCRAATVLRQFYSHHEKDTRCLGATAQQFHRHKQLIRFLKRLDRNLWGLAGLNSCPVKEANCSTLENFLERLKTIMDEKDSKCSS |  |  | 2.44 | 1.95 | 0.52 |  |  |  |  | 
8 | IL4-RE-T28C, PEGylated with linear 22 kD mPEG-maleimide (ligand, linear 22 kD methoxy-polyethylene glycol-maleimide on Cys 28 (numbered according to wild type IL-4), also called PEG-IL4RE) MHKCDITLQEIIKTLNSLTEQKTLCTELCVTDIFAASKNTTEKETFCRAATVLRQFYSHHEKDTRCLGATAQQFHRHKQLIRFLKRLDRNLWGLAGLNSCPVKEANQSTLENFLERLKTIMDEKDSKCSS |  |  | 2.35 | 2.87 | 0.89 |  |  |  |  | 
9 | IL-4TM-N38C (R121D/Y124D/N38C) PEGylated with 40 kDa branched maleimide-PEG (ligand, 40 kDa branched maleimide-PEG on Cys 38 (numbered according to wild type IL-4)) MHKCDITLQEIIKTLNSLTEQKTLCTELTVTDIFAASKCTTEKETFCRAATVLRQFYSHHEKDTRCLGATAQQFHRHKQLIRFLKRLDRNLWGLAGLNSCPVKEANQSTLENFLERLKTIMDEKDSKCSS | 2.3 | 2.43 |  |  |  |  |  | 4 | 6.85 | 
10 | IL-4TM-A104C (R121D/Y124D/A104C) PEGylated with 30 kDa linear maleimide-PEG (ligand, 30 kDa linear maleimide-PEG on Cys 104 (numbered according to wild type IL-4)) MHKCDITLQEIIKTLNSLTEQKTLCTELTVTDIFAASKNTTEKETFCRAATVLRQFYSHHEKDTRCLGATAQQFHRHKQLIRFLKRLDRNLWGLAGLNSCPVKECNQSTLENFLERLKTIMDEKDSKCSS | 4.6 | 4.93 |  |  |  |  |  | 7.6 | 13 | 
11 | IL4-RE-A104C, PEGylated with linear 22 kD mPEG-maleimide (ligand, linear 22 kD methoxy-polyethylene glycol-maleimide on Cys 104 (numbered according to wild type IL-4), also called PEG-IL4RE) MHKCDITLQEIIKTLNSLTEQKTLCTELTVTDIFAASKNTTEKETFCRAATVLRQFYSHHEKDTRCLGATAQQFHRHKQLIRFLKRLDRNLWGLAGLNSCPVKECNQSTLENFLERLKTIMDEKDSKCSS |  |  | 0.55 | 1.34 | 0.56 | 3.29 | 4.67 |  |  | 
12 | IL4-RE-N38C, PEGylated with linear 22 kD mPEG-maleimide (ligand, linear 22 kD methoxy-polyethylene glycol-maleimide on Cys 38 (numbered according to wild type IL-4), also called PEG-IL4RE) MHKCDITLQEIIKTLNSLTEQKTLCTELTVTDIFAASKCTTEKETFCRAATVLRQFYSHHEKDTRCLGATAQQFHRHKQLIRFLKRLDRNLWGLAGLNSCPVKEANQSTLENFLERLKTIMDEKDSKCSS |  |  | 0.7 | 1.24 | 0.77 | 3.33 | 9.94 |  |  | 
13 | IL4-RE-S36C, PEGylated with linear 22 kD mPEG-maleimide (ligand, linear 22 kD methoxy-polyethylene glycol-maleimide on Cys 36 (numbered according to wild type IL-4), also called PEG-IL4RE) MHKCDITLQEIIKTLNSLTEQKTLCTELTVTDIFAACKNTTEKETFCRAATVLRQFYSHHEKDTRCLGATAQQFHRHKQLIRFLKRLDRNLWGLAGLNSCPVKEANQSTLENFLERLKTIMDEKDSKCSS |  |  | 1.2 | 1.21 | 1.15 |  |  |  |  | 
